Experimental data as given in paper PMC11969024 (2025).

B1: peptide HD2 (from tick evasin EVA4) / CCL19 (biotinylated, synthetic) (parent complex)
chain 1: EEDDYTAYAPLTCYFT
chain 2: GTNDAEDCCLSVTQKPIPGYIVRNFHYLLIKDGCRVPAVVFTTLRGRQLCAPPDQPWVERIIQRLQRTSAKMKRRSS
B2: peptide HD2 (from tick evasin EVA4) / CXCL13 (biotinylated, synthetic) (parent complex)
chain 1: EEDDYTAYAPLTCYFT
chain 2: VLEVYYTSLRCRCVQESSVFIPRRFIDRIQILPRGNGCPRKEIIVWKKNKSIVCVDPQAEWIQRMMEVLRKRSSSTLPVPVFKRKIP

Variants of: B1

Variant	enrichment
chain 1 EEDDYTAYAPLYCYFT [chain 1 T12Y]	3.73 log2 (difference from the parental peptide)
chain 1 EEDDYTAYAPLTCYFN [chain 1 T16N]	-5.68 log2 (difference from the parental peptide)
chain 1 EEDDYTAVAPLTCYFT [chain 1 Y8V]	-4.57 log2 (difference from the parental peptide)
chain 1 EADDYTAYAPLTCYFT [chain 1 E2A]	-0.338 log2 (difference from the parental peptide)
chain 1 EEDDYTAYAWLTCYFT [chain 1 P10W]	-2.06 log2 (difference from the parental peptide)
chain 1 EEDDHTAYAPLTCYFT [chain 1 Y5H]	-6.3 log2 (difference from the parental peptide)
chain 1 EEDDYTAYAPLTCYFV [chain 1 T16V]	0.157 log2 (difference from the parental peptide)
chain 1 EESDYTAYAPLTCYFT [chain 1 D3S]	-8.53 log2 (difference from the parental peptide)
chain 1 EEDDYTAYVPLTCYFT [chain 1 A9V]	-6.04 log2 (difference from the parental peptide)
chain 1 EEDDYAAYAPLTCYFT [chain 1 T6A]	-0.907 log2 (difference from the parental peptide)
chain 1 EEDDYTIYAPLTCYFT [chain 1 A7I]	1.38 log2 (difference from the parental peptide)
chain 1 EEDDYTAYAPLTCYFH [chain 1 T16H]	-3.46 log2 (difference from the parental peptide)
chain 1 EEDYYTAYAPLTCYFT [chain 1 D4Y]	0.0224 log2 (difference from the parental peptide)
chain 1 EEEDYTAYAPLTCYFT [chain 1 D3E]	-0.508 log2 (difference from the parental peptide)
chain 1 EEDDTTAYAPLTCYFT [chain 1 Y5T]	-5.05 log2 (difference from the parental peptide)
chain 1 EEDDYTAYAPLTCAFT [chain 1 Y14A]	-9.01 log2 (difference from the parental peptide)
chain 1 EEDDDTAYAPLTCYFT [chain 1 Y5D]	-5.02 log2 (difference from the parental peptide)
chain 1 EEDDYTAYAPHTCYFT [chain 1 L11H]	-5.81 log2 (difference from the parental peptide)
chain 1 EEDDYTALAPLTCYFT [chain 1 Y8L]	-8.33 log2 (difference from the parental peptide)

Variant	enrichment
chain 1 EEDDYEAYAPLTCYFT [chain 1 T6E]	1.9 log2 (difference from the parental peptide)
chain 1 EEDDYTAYEPLTCYFT [chain 1 A9E]	-4.22 log2 (difference from the parental peptide)
chain 1 EEDDYIAYAPLTCYFT [chain 1 T6I]	-2.29 log2 (difference from the parental peptide)
chain 1 EEVDYTAYAPLTCYFT [chain 1 D3V]	-8.31 log2 (difference from the parental peptide)
chain 1 EEDDYTAYAPLNCYFT [chain 1 T12N]	-6.73 log2 (difference from the parental peptide)
chain 1 EEDDYTAYAPLTCYDT [chain 1 F15D]	-7.57 log2 (difference from the parental peptide)
chain 1 EEDDYTAYAPLTLYFT [chain 1 C13L]	-7.7 log2 (difference from the parental peptide)
chain 1 EEDDYTAYAPVTCYFT [chain 1 L11V]	-0.0786 log2 (difference from the parental peptide)
chain 1 EEDDYTAYAPLTCYAT [chain 1 F15A]	-5.34 log2 (difference from the parental peptide)
chain 1 EEDDYTAYAPLTCMFT [chain 1 Y14M]	-7.94 log2 (difference from the parental peptide)
chain 1 EEDDYTQYAPLTCYFT [chain 1 A7Q]	0.522 log2 (difference from the parental peptide)
chain 1 EEDDYTRYAPLTCYFT [chain 1 A7R]	-0.336 log2 (difference from the parental peptide)
chain 1 ECDDYTAYAPLTCYFT [chain 1 E2C]	-4.17 log2 (difference from the parental peptide)
chain 1 EEDDYPAYAPLTCYFT [chain 1 T6P]	-4.5 log2 (difference from the parental peptide)
chain 1 EEDDLTAYAPLTCYFT [chain 1 Y5L]	-3.97 log2 (difference from the parental peptide)
chain 1 EEDDYTAYWPLTCYFT [chain 1 A9W]	2 log2 (difference from the parental peptide)
chain 1 EEDDYTAYAPLSCYFT [chain 1 T12S]	-6.54 log2 (difference from the parental peptide)
chain 1 WEDDYTAYAPLTCYFT [chain 1 E1W]	3.38 log2 (difference from the parental peptide)
chain 1 EEDDYVAYAPLTCYFT [chain 1 T6V]	-2.16 log2 (difference from the parental peptide)

Variant	enrichment
chain 1 EEPDYTAYAPLTCYFT [chain 1 D3P]	-6.49 log2 (difference from the parental peptide)
chain 1 EEDDYQAYAPLTCYFT [chain 1 T6Q]	-0.425 log2 (difference from the parental peptide)
chain 1 EEDDYTAYAPATCYFT [chain 1 L11A]	-6.47 log2 (difference from the parental peptide)
chain 1 EEDDYTAYAPLTCYGT [chain 1 F15G]	-8.74 log2 (difference from the parental peptide)
chain 1 EEDDYTFYAPLTCYFT [chain 1 A7F]	1.3 log2 (difference from the parental peptide)
chain 1 EEDDYTAYAPLRCYFT [chain 1 T12R]	-3.3 log2 (difference from the parental peptide)
chain 1 EEDDYTAYAPLTCYFI [chain 1 T16I]	0.728 log2 (difference from the parental peptide)
chain 1 EEDDYTAYAPLKCYFT [chain 1 T12K]	-6.56 log2 (difference from the parental peptide)
chain 1 EEDDYTTYAPLTCYFT [chain 1 A7T]	-0.798 log2 (difference from the parental peptide)
chain 1 EEDDYTAYAPLTNYFT [chain 1 C13N]	-2.93 log2 (difference from the parental peptide)
chain 1 EWDDYTAYAPLTCYFT [chain 1 E2W]	3.67 log2 (difference from the parental peptide)
chain 1 EEDDYTPYAPLTCYFT [chain 1 A7P]	-4.29 log2 (difference from the parental peptide)
chain 1 EEDDYTAYAPLTCIFT [chain 1 Y14I]	-6.25 log2 (difference from the parental peptide)
chain 1 EEDDYTAYAPLTCHFT [chain 1 Y14H]	-4.96 log2 (difference from the parental peptide)
chain 1 EEDDYFAYAPLTCYFT [chain 1 T6F]	2.62 log2 (difference from the parental peptide)
chain 1 EEDDYTAYAPLTCWFT [chain 1 Y14W]	-2.78 log2 (difference from the parental peptide)
chain 1 EEDDYTAYAPFTCYFT [chain 1 L11F]	-0.375 log2 (difference from the parental peptide)
chain 1 EEDDYTAYPPLTCYFT [chain 1 A9P]	-3.61 log2 (difference from the parental peptide)

Variants of: B2

Variant	enrichment
chain 1 EEDDYTAEAPLTCYFT [chain 1 Y8E]	-1.96 log2 (difference from the parental peptide)
chain 1 EEDDYTPYAPLTCYFT [chain 1 A7P]	1.36 log2 (difference from the parental peptide)
chain 1 EEVDYTAYAPLTCYFT [chain 1 D3V]	-5.31 log2 (difference from the parental peptide)
chain 1 EEDDITAYAPLTCYFT [chain 1 Y5I]	-1.67 log2 (difference from the parental peptide)
chain 1 EEDHYTAYAPLTCYFT [chain 1 D4H]	-5.54 log2 (difference from the parental peptide)
chain 1 EEDDYTAYAPLTCVFT [chain 1 Y14V]	-9.22 log2 (difference from the parental peptide)
chain 1 EEDDYTAYAWLTCYFT [chain 1 P10W]	-7.62 log2 (difference from the parental peptide)
chain 1 EEDDYTAYVPLTCYFT [chain 1 A9V]	-5.11 log2 (difference from the parental peptide)
chain 1 EEDWYTAYAPLTCYFT [chain 1 D4W]	-0.19 log2 (difference from the parental peptide)
chain 1 PEDDYTAYAPLTCYFT [chain 1 E1P]	-3.73 log2 (difference from the parental peptide)
chain 1 EEDDYYAYAPLTCYFT [chain 1 T6Y]	3.32 log2 (difference from the parental peptide)
chain 1 EEDDYTAYAPLTVYFT [chain 1 C13V]	-5.3 log2 (difference from the parental peptide)
chain 1 EEDDYTAYAPLWCYFT [chain 1 T12W]	-0.341 log2 (difference from the parental peptide)
chain 1 EEDDYTAYAPLRCYFT [chain 1 T12R]	-8.86 log2 (difference from the parental peptide)
chain 1 EEDDYTAYAPLTCFFT [chain 1 Y14F]	-0.356 log2 (difference from the parental peptide)
chain 1 EEDDYTAYAVLTCYFT [chain 1 P10V]	-9.15 log2 (difference from the parental peptide)
chain 1 EEDDYTAYAPLYCYFT [chain 1 T12Y]	-0.431 log2 (difference from the parental peptide)
chain 1 AEDDYTAYAPLTCYFT [chain 1 E1A]	-0.971 log2 (difference from the parental peptide)
chain 1 EETDYTAYAPLTCYFT [chain 1 D3T]	-4.07 log2 (difference from the parental peptide)

Variant	enrichment
chain 1 ELDDYTAYAPLTCYFT [chain 1 E2L]	-1.53 log2 (difference from the parental peptide)
chain 1 EEQDYTAYAPLTCYFT [chain 1 D3Q]	-3.76 log2 (difference from the parental peptide)
chain 1 EEDDYTGYAPLTCYFT [chain 1 A7G]	1.15 log2 (difference from the parental peptide)
chain 1 EEDDYTAHAPLTCYFT [chain 1 Y8H]	-6.35 log2 (difference from the parental peptide)
chain 1 EEDDYTAYAPLTCYFA [chain 1 T16A]	0.703 log2 (difference from the parental peptide)
chain 1 EEDDYTAYAPLTCYQT [chain 1 F15Q]	-6.18 log2 (difference from the parental peptide)
chain 1 EEDDYTAYAPLTCYFY [chain 1 T16Y]	-0.167 log2 (difference from the parental peptide)
chain 1 EEDDYTAYAELTCYFT [chain 1 P10E]	-2.35 log2 (difference from the parental peptide)
chain 1 EEDDYTAYAPLTCTFT [chain 1 Y14T]	-6.13 log2 (difference from the parental peptide)
chain 1 EEDDYTASAPLTCYFT [chain 1 Y8S]	-4.52 log2 (difference from the parental peptide)
chain 1 EEDDYTAYAPLTEYFT [chain 1 C13E]	-6.71 log2 (difference from the parental peptide)
chain 1 EEDDYTAYAPLTCYYT [chain 1 F15Y]	-0.776 log2 (difference from the parental peptide)
chain 1 EEDDYTAYAPLTCMFT [chain 1 Y14M]	-7.75 log2 (difference from the parental peptide)
chain 1 EEDDYTAYAPLTCYFC [chain 1 T16C]	0.44 log2 (difference from the parental peptide)
chain 1 EPDDYTAYAPLTCYFT [chain 1 E2P]	-4.82 log2 (difference from the parental peptide)
chain 1 EEWDYTAYAPLTCYFT [chain 1 D3W]	-0.789 log2 (difference from the parental peptide)
chain 1 EEDDWTAYAPLTCYFT [chain 1 Y5W]	5.05 log2 (difference from the parental peptide)
chain 1 EEDDYTAYAPLPCYFT [chain 1 T12P]	-5.86 log2 (difference from the parental peptide)
chain 1 EEDDYTAYQPLTCYFT [chain 1 A9Q]	-0.472 log2 (difference from the parental peptide)

Variant	enrichment
chain 1 EEDDYTAYAPLTIYFT [chain 1 C13I]	-4.63 log2 (difference from the parental peptide)
chain 1 EEDDYTAYPPLTCYFT [chain 1 A9P]	2.11 log2 (difference from the parental peptide)
chain 1 EEDDYTAYAHLTCYFT [chain 1 P10H]	-5.73 log2 (difference from the parental peptide)
chain 1 EEDDYTAYFPLTCYFT [chain 1 A9F]	-2.3 log2 (difference from the parental peptide)
chain 1 EEDDYTIYAPLTCYFT [chain 1 A7I]	0.819 log2 (difference from the parental peptide)
chain 1 EEDNYTAYAPLTCYFT [chain 1 D4N]	-3.74 log2 (difference from the parental peptide)
chain 1 TEDDYTAYAPLTCYFT [chain 1 E1T]	-1.65 log2 (difference from the parental peptide)
chain 1 EEDDYTAYLPLTCYFT [chain 1 A9L]	-0.527 log2 (difference from the parental peptide)
chain 1 EEDDVTAYAPLTCYFT [chain 1 Y5V]	-2.43 log2 (difference from the parental peptide)
chain 1 EEYDYTAYAPLTCYFT [chain 1 D3Y]	-2.28 log2 (difference from the parental peptide)
chain 1 EEDDYSAYAPLTCYFT [chain 1 T6S]	2.15 log2 (difference from the parental peptide)
chain 1 EEDDYTMYAPLTCYFT [chain 1 A7M]	3.01 log2 (difference from the parental peptide)
chain 1 EEDDYTFYAPLTCYFT [chain 1 A7F]	0.877 log2 (difference from the parental peptide)
chain 1 EEDDYTAYAPTTCYFT [chain 1 L11T]	-3.85 log2 (difference from the parental peptide)
chain 1 EEDDYFAYAPLTCYFT [chain 1 T6F]	1.42 log2 (difference from the parental peptide)
chain 1 EEDDYTAYNPLTCYFT [chain 1 A9N]	-3.98 log2 (difference from the parental peptide)
chain 1 EEDDYTAYEPLTCYFT [chain 1 A9E]	1.61 log2 (difference from the parental peptide)
chain 1 EEDFYTAYAPLTCYFT [chain 1 D4F]	-4.23 log2 (difference from the parental peptide)
